Laboratory results published in patent US8278109.

Experiments:
[1] = biological target: JEG-3 derived purified hCG-H (human) (UniProt P01215); assay: SPR (Biacore); 7 injections of B152 at 20-100 micrograms/ml over JEG-3 hCG-H; lower end
[2] = biological target: JEG-3 derived purified hCG-H (human) (UniProt P01215); assay: SPR (Biacore); 7 injections of B152 at 20-100 micrograms/ml over JEG-3 hCG-H; at 100 micrograms/ml
[3] = biological target: JEG-3 derived purified hCG-H (human) (UniProt P01215); assay: SPR (Biacore); B152 concentration (100 micrograms/ml) giving 223 RU on hCG-H compared with SMA 3E8 and SMA 4D8

UniProt P01215, sequence (P01215 25-116, chain 1 of 2, other chains not shown): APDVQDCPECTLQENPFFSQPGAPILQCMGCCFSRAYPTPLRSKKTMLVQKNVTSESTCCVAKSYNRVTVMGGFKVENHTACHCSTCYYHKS

## B152 (antibody)
[1]
  response: 60 RU
[2]
  response: 223 RU
[3]
  fold antibody concentration needed for the response, against SMA 3E8 and SMA 4D8: 50 to 100 fold
